Results reported in patent publication US20180280551A1 (published 2018).
Each block holds one binder with its values, some of them ahead of it.

How the values were obtained:
[1] = molecular target: T1, CD11b (mouse), on the CD11b+ mutuDC dendritic cell line and on cells of lymphoid organs (mouse, UniProt P05555 17-1153); assay: FACS, CD11b+ mutuDC dendritic cell line stained in vitro with Alexa647-labeled DC13 monomer or dimer; reference DC13 monomer
T1 construct: whole, on cells; Its partner chain on the cell surface is not mentioned
Text: Cells were harvested and analyzed with FACS.
Four sortase substrates were designed and synthesized for production of dimers or PEGylated VHHs (FIG. 1). The substrates either contain two bioorthogonal handles or a handle and a flourophore. The Alexa647-labeled substrate was designed such that the reaction products could be used in FACS experiments to estimate relative in vitro binding affinities. […] The dimers were produced as exemplified in FIG. 2. For DC8 (anti Class II), splenocytes were stained with different concentrations of monomers and dimers and analyzed by FACS. For DC13 (anti CD11b), the CD11b⁺ mutuDC dendritic cell line was used. For Class II MHC and CD11b, VHH dimers bind approximately 3.3 and 2.3-fold better than their corresponding monomers respectively (FIG. 3). The in vivo binding characteristics of the VHH dimers versus monomers were evaluated. Due to the more abundant expression of Class II MHC molecules on splenocytes compared to that of CD11b, the in vivo binding affinity for anti-Class II dimers was explored. Mice were injected i.v. with equal amounts of monomers and dimers (0.25 nmol) of DC8. 2 h p.i., mice were euthanized and lymphoid organs were excised for examination. Monomers and dimers yielded different staining patterns (FIG. 3B), with the dimer showing interspersed yet more pronounced staining than the monomer, corroborating the FACS results. […]

[2] = molecular target: Class II MHC (mouse), on splenocytes and lymphoid organ cells (mouse); assay: FACS, splenocytes stained in vitro with different concentrations of Alexa647-labeled DC8 monomer or dimer; reference DC8 monomer
[3] = molecular target: Class II MHC (mouse), on splenocytes and lymphoid organ cells (mouse); assay: FACS of spleen cells harvested 3 h after i.v. injection of Alexa647-labeled VHH into B6 mice; reference non-PEGylated DC8-Alexa647
[4] = molecular target: Class II MHC (mouse), on splenocytes and lymphoid organ cells (mouse); assay: FACS of spleen cells harvested 3 h after i.v. injection of Alexa647-labeled VHH into B6 mice; reference non-PEGylated DC8-Alexa647; no staining in the spleen of an MHC II-/- mouse

Chain of Class II MHC (mouse), on splenocytes and lymphoid organ cells (mouse) (P14434 24-256, chain 1 of 2): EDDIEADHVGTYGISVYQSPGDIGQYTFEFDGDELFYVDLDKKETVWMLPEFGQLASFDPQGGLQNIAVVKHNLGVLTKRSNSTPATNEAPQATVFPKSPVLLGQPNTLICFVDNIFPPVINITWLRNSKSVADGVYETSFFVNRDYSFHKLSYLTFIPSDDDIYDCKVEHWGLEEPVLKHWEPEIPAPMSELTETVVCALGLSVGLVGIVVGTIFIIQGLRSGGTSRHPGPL
Chain of Class II MHC (mouse), on splenocytes and lymphoid organ cells (mouse) (P14483 28-265, chain 2 of 2, further chain): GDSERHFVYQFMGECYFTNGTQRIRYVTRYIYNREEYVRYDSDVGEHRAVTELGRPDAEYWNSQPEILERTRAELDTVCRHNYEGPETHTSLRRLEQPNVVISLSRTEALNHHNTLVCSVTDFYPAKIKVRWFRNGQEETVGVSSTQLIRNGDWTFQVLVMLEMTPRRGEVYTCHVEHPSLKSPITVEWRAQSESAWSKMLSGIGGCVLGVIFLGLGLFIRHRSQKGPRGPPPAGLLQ
T1 sequence (P05555 17-1153): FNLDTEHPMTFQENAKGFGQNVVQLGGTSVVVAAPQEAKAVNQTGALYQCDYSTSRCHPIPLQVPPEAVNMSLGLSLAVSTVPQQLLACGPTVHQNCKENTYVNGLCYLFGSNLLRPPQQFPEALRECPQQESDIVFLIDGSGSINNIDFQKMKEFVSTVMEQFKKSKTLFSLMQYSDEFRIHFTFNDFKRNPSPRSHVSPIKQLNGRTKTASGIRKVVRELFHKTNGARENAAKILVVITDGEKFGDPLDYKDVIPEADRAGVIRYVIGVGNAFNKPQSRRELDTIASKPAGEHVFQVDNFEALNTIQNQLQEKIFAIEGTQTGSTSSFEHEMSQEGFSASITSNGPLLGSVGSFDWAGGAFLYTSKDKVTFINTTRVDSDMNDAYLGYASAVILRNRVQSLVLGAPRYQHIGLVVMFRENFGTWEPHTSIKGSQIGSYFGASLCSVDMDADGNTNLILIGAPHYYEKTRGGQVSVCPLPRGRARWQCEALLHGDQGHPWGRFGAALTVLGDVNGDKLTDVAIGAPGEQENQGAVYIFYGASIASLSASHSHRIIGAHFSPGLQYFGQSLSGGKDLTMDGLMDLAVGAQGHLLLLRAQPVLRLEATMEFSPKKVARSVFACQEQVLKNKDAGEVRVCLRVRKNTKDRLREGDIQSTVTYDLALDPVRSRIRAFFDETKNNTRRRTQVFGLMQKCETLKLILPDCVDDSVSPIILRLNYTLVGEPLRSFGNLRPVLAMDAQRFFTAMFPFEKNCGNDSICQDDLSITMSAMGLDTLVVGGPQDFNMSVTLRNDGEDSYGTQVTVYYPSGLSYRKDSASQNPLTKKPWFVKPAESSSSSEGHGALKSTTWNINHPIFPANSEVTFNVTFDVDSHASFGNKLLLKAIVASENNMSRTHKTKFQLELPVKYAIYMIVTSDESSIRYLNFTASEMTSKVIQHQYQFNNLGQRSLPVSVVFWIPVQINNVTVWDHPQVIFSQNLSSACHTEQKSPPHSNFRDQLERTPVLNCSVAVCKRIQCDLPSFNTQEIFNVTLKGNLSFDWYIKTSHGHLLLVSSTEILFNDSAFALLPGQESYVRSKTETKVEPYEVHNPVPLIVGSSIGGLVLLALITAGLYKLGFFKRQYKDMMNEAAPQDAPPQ

B3: DC8-Alexa647-PEG-10 kDa (PEGylated DC8, 10 kDa PEG) (VHH)
VHH: QVQLQESGGGLVQPGGSLRLSCTASGFTFSTYYMSWVRKAPGKGPEWVSVMNSSGGDTRYADFVKGRFTISRDNAKNTLYLQMNSLKPEDTALYYCAQGRSDIYPTFTRGQGTQVTVSS
modifications: Sortagged at LPET with (Gly)3-PEG12-Cys(X)-PEG5-Lys(azide), where X is Alexa647, Texas Red or TCO/18F-tetrazine. DBCO-PEG 10 kDa is clicked onto the azide.
- increase in staining versus non-PEGylated DC8 [3]: 100%

B4: DC8-Alexa647-PEG-5 kDa (PEGylated DC8, 5 kDa PEG) (VHH)
VHH: B3 VHH
modifications: Sortagged at LPET with (Gly)3-PEG12-Cys(X)-PEG5-Lys(azide), where X is Alexa647, Texas Red or TCO/18F-tetrazine. DBCO-PEG 5 kDa is clicked onto the azide.
- increase in staining versus non-PEGylated DC8 [3]: 30%

B5: DC8-Alexa647-PEG-20 kDa (PEGylated DC8, 20 kDa PEG) (VHH)
VHH: B3 VHH
modifications: Sortagged at LPET with (Gly)3-PEG12-Cys(X)-PEG5-Lys(azide), where X is Alexa647, Texas Red or TCO/18F-tetrazine. DBCO-PEG 20 kDa is clicked onto the azide.
- increase in staining versus non-PEGylated DC8 [4]: 220%

The next lines start with the values.

- fold better binding than the corresponding monomer [1]: ~2.3 fold
B1: DC13-dimer (bivalent DC13, two DC13 VHHs joined through their C-termini) (VHH)
VHH: QVQLQESGGGLVQTGGSLRLSCAASGVDFNWYSMGWFRQAPGKEREYVASIDQGGELDYAISVKGRFTISRDNAKNMVYLQMNSLKPEDTAVYYCAADFSGRGASNPDKYKYWGQGTQVTVSS
modifications: Each chain is sortagged at LPET. One carries (Gly)3-Cys(maleimide-DBCO), the other (Gly)3-PEG12-Cys(X)-PEG5-Lys(azide), where X is Alexa647, Texas Red or TCO/18F-tetrazine. The two chains are joined C-terminus to C-terminus by DBCO-azide click chemistry.
notes: This is a chemical C-to-C dimer; also called anti CD11b dimer; 18F-DC13 dimer

- fold better binding than the corresponding monomer [2]: 3.3 fold
B2: DC8-dimer (bivalent DC8, two DC8 VHHs joined through their C-termini) (VHH)
VHH: B3 VHH
modifications: Each chain is sortagged at LPET. One carries (Gly)3-Cys(maleimide-DBCO), the other (Gly)3-PEG12-Cys(X)-PEG5-Lys(azide), where X is Alexa647, Texas Red or TCO/18F-tetrazine. The two chains are joined C-terminus to C-terminus by DBCO-azide click chemistry.
